Consider seven molecules from US20200024360A1 (Janssen / Centocor, published 2020).

Where a chain is given by its changes, count along the chain named. Names may count otherwise.

In assay [1] the target is T1, human PSMA (prostate specific membrane antigen), full length (human, UniProt Q04609 1-750).
T1 construct: On LNCaP or C4-2B cells (endogenous) or transduced HEK293F cells; also called FOLH1_HUMAN; hPSMA
Description: flow cytometry, bispecific antibody titrated on human PSMA HEK cells, anti-human kappa light chain PE. How it is done: (§1) PSMA×CD3 bispecific antibodies were tested for binding to PSMA positive cell lines LNCAP, human PSMA-HEK, Chimpanzee-PSMA-HEK and Cynomolgous monkey PSMA-HEK. To assess the binding capabilities of the PSMA bispecific antibodies, the cell-binding assay was utilized (described previously). Briefly, PSMA expressing tumor cells are bound by bispecific antibodies at known concentrations and the bound antibody is detected by an anti-human kappa light chain PE conjugated detection reagent (Invitrogen). The Mean Fluorescents Intensity (MFI) is the measure of bound bispecific antibody. The MFI is converted to a relative EC₅₀. EC₅₀ is a commonly used dose-response curve, where the half maximal effective concentration or the EC₅₀ point is defined as the inflection point of the curve. EC₅₀ s were determined by measuring cell bound bispecific and known concentrations. […] The dose response curves were then diluted down to that of background or no bispecific binding. The inflection point of this curve reflects the EC₅₀ point. The calculated EC₅₀ is determined by taking the ug/ml amount of bispecific antibody at the EC₅₀ point and converting it to a molarity value based on the MW of the bispecific antibody. Bispecific antibodies were normalized for protein concentration and then incubated with the same number of cells expressing either human or cyno PSMA. […]

Assay [2] deals with T1, human PSMA (prostate specific membrane …). The experiment in a line: flow cytometry, bispecific antibody titrated on LNCaP cells (human PSMA), anti-human kappa light chain PE. On the procedure:
as §1

Assay [3] shares this target. The description is as above. How it is done: PSMA×CD3 bispecific antibodies were tested for binding to PSMA positive cell lines LNCAP, human PSMA-HEK, Chimpanzee-PSMA-HEK and Cynomolgous monkey PSMA-HEK. To assess the binding capabilities of the PSMA bispecific antibodies, the cell-binding assay was utilized (described previously). Briefly, PSMA expressing tumor cells are bound by bispecific antibodies at known concentrations and the bound antibody is detected by an anti-human kappa light chain PE conjugated detection reagent (Invitrogen). The Mean Fluorescents Intensity (MFI) is the measure of bound bispecific antibody. The MFI is converted to a relative EC₅₀. EC₅₀ is a commonly used dose-response curve, where the half maximal effective concentration or the EC₅₀ point is defined as the inflection point of the curve. EC₅₀ s were determined by measuring cell bound bispecific and known concentrations. […] The dose response curves were then diluted down to that of background or no bispecific binding. The inflection point of this curve reflects the EC₅₀ point. The calculated EC₅₀ is determined by taking the ug/ml amount of bispecific antibody at the EC₅₀ point and converting it to a molarity value based on the MW of the bispecific antibody. Bispecific antibodies were normalized for protein concentration and then incubated with the same number of cells expressing either human or cyno PSMA. The MFI at each concentration was collected by flow cytometry and plotted as a function of concentration. Data was transformed via log 10 and then plotted. Nonlinear regression of binding curves was done to determine EC₅₀ s. These relative values were used for ranking PSMA binding to target cells.
This is another data set of the same source.

Assay [4] concerns the target T2, human CD3ε on primary human T cells (human, UniProt P07766 23-207).
T2 construct: whole, on cells; Part of the TCR-CD3 complex on the cells; also called cell-surface CD3ε; CD3E
Description: FACS, primary human T cells.

Assay [5] concerns the target T3, recombinant human PSMA extracellular domain (ECD) protein (human, UniProt Q04609 44-750).
T3 construct: also called human PSMA ECD
Description: SPR ProteOn.

Assay [6] has as its target T4, recombinant chimpanzee PSMA extracellular domain (ECD) protein (Pan troglodytes, UniProt Q04609 44-750 (human entry)).
T4 construct: also called Chimp PSMA ECD; PSMG8
T4 chain: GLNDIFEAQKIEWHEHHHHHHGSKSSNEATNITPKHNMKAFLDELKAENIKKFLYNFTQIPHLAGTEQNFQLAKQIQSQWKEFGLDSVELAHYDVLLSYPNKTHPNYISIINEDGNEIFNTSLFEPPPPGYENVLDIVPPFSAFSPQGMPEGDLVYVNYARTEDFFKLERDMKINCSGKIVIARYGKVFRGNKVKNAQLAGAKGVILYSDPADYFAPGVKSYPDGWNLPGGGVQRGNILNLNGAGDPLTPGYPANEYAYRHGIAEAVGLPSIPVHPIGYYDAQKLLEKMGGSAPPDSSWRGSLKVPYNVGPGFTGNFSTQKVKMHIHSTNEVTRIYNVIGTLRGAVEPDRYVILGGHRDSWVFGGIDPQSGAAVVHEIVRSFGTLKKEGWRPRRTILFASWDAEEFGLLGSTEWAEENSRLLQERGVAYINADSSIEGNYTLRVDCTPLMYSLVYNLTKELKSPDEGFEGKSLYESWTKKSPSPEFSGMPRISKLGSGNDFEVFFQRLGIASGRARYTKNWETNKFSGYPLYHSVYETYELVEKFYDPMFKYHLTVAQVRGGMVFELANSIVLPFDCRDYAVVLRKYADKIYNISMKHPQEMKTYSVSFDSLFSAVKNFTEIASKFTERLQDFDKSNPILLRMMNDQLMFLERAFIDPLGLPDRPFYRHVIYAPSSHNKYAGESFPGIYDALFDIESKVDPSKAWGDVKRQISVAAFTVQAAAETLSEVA
Description: SPR ProteOn.

In assay [7] the target is T5, recombinant cynomolgous monkey PSMA extracellular domain (ECD) protein (Macaca fascicularis, UniProt Q04609 48-750 (human entry), biotin on the Avi tag).
T5 construct: also called cyno PSMA ECD; PSMG1
T5 chain: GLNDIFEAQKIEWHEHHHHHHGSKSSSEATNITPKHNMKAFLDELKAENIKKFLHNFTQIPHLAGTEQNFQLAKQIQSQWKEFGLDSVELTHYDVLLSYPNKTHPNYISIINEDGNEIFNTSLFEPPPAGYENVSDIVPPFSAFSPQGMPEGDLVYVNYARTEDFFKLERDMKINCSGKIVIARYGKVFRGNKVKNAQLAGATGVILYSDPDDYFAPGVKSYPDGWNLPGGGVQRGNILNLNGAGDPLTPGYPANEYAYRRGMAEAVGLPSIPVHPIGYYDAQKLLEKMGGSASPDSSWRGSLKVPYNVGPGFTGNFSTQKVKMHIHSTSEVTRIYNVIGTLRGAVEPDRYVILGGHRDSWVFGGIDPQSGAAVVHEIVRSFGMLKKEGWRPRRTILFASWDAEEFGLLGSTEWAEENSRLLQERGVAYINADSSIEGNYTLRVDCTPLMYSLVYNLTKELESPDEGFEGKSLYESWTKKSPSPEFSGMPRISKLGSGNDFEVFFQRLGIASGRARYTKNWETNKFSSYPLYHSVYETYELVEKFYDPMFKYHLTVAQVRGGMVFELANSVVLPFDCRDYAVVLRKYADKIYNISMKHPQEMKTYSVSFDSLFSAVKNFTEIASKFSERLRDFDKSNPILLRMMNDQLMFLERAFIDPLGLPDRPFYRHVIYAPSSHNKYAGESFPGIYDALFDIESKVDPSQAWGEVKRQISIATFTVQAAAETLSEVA
The experiment in a line: SPR ProteOn.

T2 sequence (P07766 23-207): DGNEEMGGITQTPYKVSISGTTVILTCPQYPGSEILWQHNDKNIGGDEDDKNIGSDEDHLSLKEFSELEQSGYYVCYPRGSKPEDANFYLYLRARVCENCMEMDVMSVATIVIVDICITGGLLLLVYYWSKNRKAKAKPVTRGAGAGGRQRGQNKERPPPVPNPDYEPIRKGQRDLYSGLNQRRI
T1 sequence (Q04609 whole entry): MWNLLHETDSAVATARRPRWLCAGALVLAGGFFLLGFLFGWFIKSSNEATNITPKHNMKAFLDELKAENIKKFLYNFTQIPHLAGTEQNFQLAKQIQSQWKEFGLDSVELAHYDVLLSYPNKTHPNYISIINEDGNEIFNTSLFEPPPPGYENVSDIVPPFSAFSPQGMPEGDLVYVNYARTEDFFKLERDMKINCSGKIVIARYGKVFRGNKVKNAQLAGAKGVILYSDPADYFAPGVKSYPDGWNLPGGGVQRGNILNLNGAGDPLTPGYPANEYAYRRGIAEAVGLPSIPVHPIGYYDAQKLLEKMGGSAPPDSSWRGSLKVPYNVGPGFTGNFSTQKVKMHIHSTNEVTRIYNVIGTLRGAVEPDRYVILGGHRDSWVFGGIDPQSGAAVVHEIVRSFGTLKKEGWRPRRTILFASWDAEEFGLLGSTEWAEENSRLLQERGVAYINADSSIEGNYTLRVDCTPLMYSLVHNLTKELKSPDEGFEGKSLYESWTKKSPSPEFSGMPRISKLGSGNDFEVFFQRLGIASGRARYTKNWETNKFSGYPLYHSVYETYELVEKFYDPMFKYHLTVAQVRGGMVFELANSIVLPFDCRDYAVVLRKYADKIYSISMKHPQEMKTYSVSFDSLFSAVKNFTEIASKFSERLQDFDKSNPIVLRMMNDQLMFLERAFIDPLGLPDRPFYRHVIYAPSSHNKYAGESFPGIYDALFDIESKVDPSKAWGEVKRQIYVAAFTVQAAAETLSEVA

B1: PS3B7 (M59) (bispecific antibody, human IgG4 S228P, kappa, lambda, F234A L235A)
heavy chain, PSMA arm (PSMB87, Fab PSMB58): not shown
light chain, PSMA arm (PSMB87, Fab PSMB58): not shown
heavy chain, CD3 arm (CD3B217): EVQLLESGGGLVQPGGSLRLSCAASGFTFNTYAMNWVRQAPGKGLEWVARIRSKYNNYATYYADSVKGRFTISRDNSKNTLYLQMNSLRAEDTAVYYCVKHGNFGNSYVSWFAYWGQGTLVTVSSASTKGPSVFPLAPCSRSTSESTAALGCLVKDYFPEPVTVSWNSGALTSGVHTFPAVLQSSGLYSLSSVVTVPSSSLGTKTYTCNVDHKPSNTKVDKRVESKYGPPCPPCPAPEAAGGPSVFLFPPKPKDTLMISRTPEVTCVVVDVSQEDPEVQFNWYVDGVEVHNAKTKPREEQFNSTYRVVSVLTVLHQDWLNGKEYKCKVSNKGLPSSIEKTISKAKGQPREPQVYTLPPSQEEMTKNQVSLTCLVKGFYPSDIAVEWESNGQPENNYKTTPPVLDSDGSFLLYSKLTVDKSRWQEGNVFSCSVMHEALHNHYTQKSLSLSLGK
light chain, CD3 arm (CD3B217): QAVVTQEPSLTVSPGGTVTLTCRSSTGAVTTSNYANWVQQKPGQAPRGLIGGTNKRAPGTPARFSGSLLGGKAALTLSGAQPEDEAEYYCALWYSNLWVFGGGTKLTVLGQPKAAPSVTLFPPSSEELQANKATLVCLISDFYPGAVTVAWKADSSPVKAGVETTTPSKQSNNKYAASSYLSLTPEQWKSHRSYSCQVTHEGSTVEKTVAPTECS
notes: also called PSMB87 x CD3B217
Broadly, the EC50 (read off the curve) is the midpoint of the concentration-response curve. For B1, the concentration giving a half-maximal response (EC50 (read off the curve)) in assay [1], in assay [2] and in assay [3] was around 1 µg/mL in each case.

B2: PS3B12 (M87) (bispecific antibody, human IgG4 S228P, kappa, lambda, F234A L235A)
heavy chain, PSMA arm (PSMB130): not shown
light chain, PSMA arm (PSMB130): not shown
heavy chain, CD3 arm (CD3B217): B1 heavy chain, CD3 arm (CD3B217)
light chain, CD3 arm (CD3B217): B1 light chain, CD3 arm (CD3B217)
notes: also called PSMB130 x CD3B217
With B2, the concentration for a half-maximal effect (EC50 (read off the curve)) in assay [2] was around 1 µg/mL.

B3: CD3B144 (antibody, V domains shown)
VH: EVQLVESGGGLVQPGGSLRLSCAASGFTFNTYAMNWVRQAPGKGLEWVARIRSKYNNYATYYAASVKGRFTISRDDSKNSLYLQMNSLKTEDTAVYYCARHGNFGNSYVSWFAYWGQGTLVTVSS
VL: QSVLTQPPSVSAAPGQKVTISCRSSTGAVTTSNYANWVQQLPGTAPKGLIGGTNKRAPGIPDRFSGSKSGTSATLGITGLQTGDEADYYCALWYSNLWVFGGGTKLTVL
notes: also called CD3H141/CD3L64
For B3, the binding result in assay [4] is given as “no binding (tested: 10 µg/ml (normalised))”.

B4: CD3B152 (antibody, V domains shown)
VH: B3 VH with V5L, A64D, D76N, S80T, K89R, T90A, A99V, R100K
VL: B3 VL
notes: also called CD3H143/CD3L64
Take B4: the binding result in assay [4] was “no binding (tested: 10 µg/ml (normalised))”.

B5: PSMB123 (antibody, human IgG4 S228P, kappa, F234A L235A, V domains shown)
VH: EVQLVQSGAEVKKPGESLKISCKGSGYSFTSYWIGWVRQMPGKGLEWMGIIYPGDSDTRYSPSFQGQVTISADKSISTAYLQWSSLKASDTAMYYCARGLPIWYLDYWGQGTLVTVSS
VL: EIVLTQSPATLSLSPGERATLSCRASQSVASDLAWYQQKPGQAPRLLIYFASNRATGIPARFSGSGSGTDFTLTISSLEPEDFAVYYCQQSITWPFTFGQGTKVEIKR
notes: IgG4 with S228P, F234A, L235A; also called mAb of Fab PSMB55
By Kd is commonly meant the concentration at which binding is half-saturated. Consider B5, for which the figures for the Kd in assay [5], in assay [6] and in assay [7] were 9.03 nM, 14.3 nM and 66.7 nM, respectively.

B6: PSMB127 (antibody, human IgG4 S228P, kappa, F234A L235A, V domains shown)
VH: EVQLLESGGGLVQPGGSLRLSCAASGFTFKSDAMHWVRQAPGKGLEWVSEISGSGGYTNYADSVKGRFTISRDNSKNTLYLQMNSLRAEDTAVYYCARDSYDSSLYVGDYFDYWGQGTLVTVSS
VL: B5 VL with A30S, D32Y, F50D, S91R, I92S, T93N, F96L
notes: IgG4 with S228P, F234A, L235A; also called mAb of Fab PSMB83
Consider B6, for which the results for the Kd in assay [5], in assay [6] and in assay [7] were 12 nM, 12.8 nM and 6.68 nM, respectively.

B7: PSMB130 (antibody, human IgG4 S228P, kappa, F234A L235A, V domains shown)
VH: QVQLVQSGAEVKKPGSSVKVSCKASGGTFKSYDISWVRQAPGQGLEWMGGIIPIEGTANYAQKFQGRVTITADESTSTAYMELSSLRSEDTAVYYCARDYPAGYGFDYWGQGTLVTVSS
VL: not shown
notes: IgG4 with S228P, F234A, L235A; also called mAb of Fab PSMB86
For B7, the Kd is 29.6 nM in assay [5] and 31.7 nM in assay [6].
